The text below walks through data of PMC10688334, “Toward the understanding of DSG2 and CD46 interaction with HAdV-11 fiber, a super-complex analysis” (Journal of Virology, 2023).

B1: human HAdV-11 fiber knob, wild type (domain or fragment)
chain: DDNINTLWTGVNPTEANCQIMNSSESNDCKLILTLVKTGALVTAFVYVIGVSNNFNMLTTHRNINFTAELFFDSTGNLLTRLSSLKTPLNHKSGQNMATGAITNAKGFMPSTTAYPFNDNSREKENYIYGTCYYTASDRTAFPIDISVMLNRRAINDETSYCIRITWSWNTGDAPEVQTSATTLVTSPFTFYYIREDD
notes: HAdV-11 fiber protein, knob, residues D128 to D325 of Swiss-Prot P35774; gene synthesised by GenScript; Trimeric form purified; amine-coupled to the biosensor in the kinetic BLI; also called HAd11K; HAd11 knob; not shown: His6, N-terminal, kept
B2: recombinant DSG2 EC2-EC3 extracellular domains (domain or fragment, human, UniProt Q14126 149-386, looked up)
chain: VLDINDNEPVFTQDVFVGSVEELSAAHTLVMKINATDADEPNTLNSKISYRIVSLEPAYPPVFYLNKDTGEIYTTSVTLDREEHSSYTLTVEARDGNGEVTDKPVKQAQVQIRILDVNDNIPVVENKVLEGMVEENQVNVEVTRIKVFDADEIGSDNWLANFTFASGNEGGYFHIETDAQTNEGIVTLIKEVDYEEMKNLDFSVIVANKAAFHKSIRSKYKPTPIPIKVKVKNVKEGI
notes: desmoglein 2 (DSG2), human, EC2-EC3 domains, residues V149-I386 of Swiss-Prot Q14126.2; Cloned AgeI/KpnI in pHL-sec, which supplies a secretion signal and the C-terminal His6; also called rDSG2; soluble rDSG2; source: HEK293 F, transiently transfected, secreted, purified from supernatant (His GraviTrap, Superdex 200)
B3: recombinant CD46 SCR1-SCR2 domains (domain or fragment, human, UniProt P15529 35-160, looked up)
chain: CEEPPTFEAMELIGKPKPYYEIGERVDYKCKKGYFYIPPLATHTICDRNHTWLPVSDDACYRETCPYIRDPLNGQAVPANGTYEFGYQMHFICNEGYYLIGEEILYCELKGSVAIWSGKPPICEKV
notes: hCD46, the two first extracellular domains (SCR1, SCR2), residues C35-V160 of Swiss-Prot P15529; gene synthesised by GenScript; Cloned in the same vector pHL-sec as rDSG2 (secretion signal, C-terminal His6); also called rCD46; soluble rCD46; source: HEK293 F, transiently transfected, secreted, purified from supernatant (His GraviTrap, Superdex 200)

For series [1], the target named is B2. In words: BLI; HAd11K (WT or D265A), 100 µg/mL in 10 mM sodium acetate pH 4, amine-coupled to AR2G biosensor; rDSG2 or rCD46 0.7-10.8 µM in HBS-P (10 mM HEPES, 145 mM NaCl, 0.005% P20, pH 7.4) with 3 mM CaCl2; room temperature; association 180 s, dissociation 120 s; global fit. As to conditions: both partners purified.
Series [2] deals with the molecule itself. Briefly: cryo-EM structure; HAd11K in complex with rDSG2; two populations (one or two rDSG2 per knob trimer).
Series [3] has as its target B1. In words: cryo-EM structure; SEC fraction of HAd11K/rDSG2/rCD46 super-complex (rDSG2:rCD46 3:1). Conditions: both partners purified.
Series [4] has as its target B1. Briefly: BLI; HAd11K (WT or D265A), 100 µg/mL in 10 mM sodium acetate pH 4, amine-coupled to AR2G biosensor; rDSG2 or rCD46 0.7-10.8 µM in HBS-P (10 mM HEPES, 145 mM NaCl, 0.005% P20, pH 7.4) with 3 mM CaCl2; room temperature; association 180 s, dissociation 120 s; global fit. Conditions: both partners purified. Background: In BLI a coated tip is dipped into the sample, and binding shifts an interference pattern.

In general, Kd refers to the free concentration of one partner at which half of the binding sites on the other are occupied at equilibrium, for simple one-to-one binding. In general, koff refers to a measure of how fast the partners let go of each other. For orientation: kon means the rate constant with which the complex forms. In general, stoichiometry N refers to a count of units in the complex or per binding partner. Take B1: in series [1], the Kd was 2.9 µM, the dissociation rate constant (koff) was 0.114 s⁻¹ and the kon worked out at 39400 M⁻¹ s⁻¹. Further, in series [2], the “stoichiometry N” value turned out to be 3.
With B2, in series [3], the “stoichiometry N” value was 1.
Take B3: in series [4], the Kd was 0.243 µM, the koff came out at 0.005 s⁻¹ and the kon was found to be 22800 M⁻¹ s⁻¹. In addition, in series [3], the “stoichiometry N” value worked out at 1.
